Reference: patent US8030048B2, “Enantioselective epoxide hydlrolase and method for preparing and enantiopure epoxide using the same” (Korea Ocean Research and Development Institute, priority 2005, dated 2011)
“And” between values parts separate entries of the source, which are not always exact repeats. Equal values may be shown once.

Assays:
[1] = Enantioselective hydrolyzing activity of purified EHases toward EB; format: biochemical
Procedure: (§1) Kinetic parameters of the rEEH1, rEEH2, rEEH3, sEEH, nEEH, and rEEH were determined by a GC analysis using (R)- or (S)- styrene oxide substrate. 100 ul of purified EHases were mixed with various concentrations of (R)- or (S)- styrene oxide in a 10 ml tube containing 1 ml of potassium phosphate buffer (100 mM, pH 8.0), and shake-incubated at 200 rpm and a temperature of 30° C. The extraction mixtures were extracted with 2 ml of hexane, and enantiomeric excess [ee; ee=100×(S−R)/(S+R)] toward enantiopure styrene oxide was analyzed with a chiraldex gamma-cyclodextrin trifluoroacetyl(G-TA) capillary GC column. Wherein, the FIG. 8 was diagramed with GC analysis for the hydrolyzing activities of enantioselective EHases (rEEH1, rEEH2, and rEEH3) toward racemic styrene oxide.
(§2) Kinetic parameters were estimated by non-linear regression analysis using a Sigma Plot program, and various substrates as depicted in FIG. 1 were also tested for the enantioselective hydrolyzing activity by rEEH1, rEEH2, rEEH3, sEEH, nEEH, and rEEH.

[2] = Kinetic parameters of purified EHases by GC analysis, (R)-styrene oxide; format: biochemical; settings: (R)-enantiomer of styrene oxide, Table 5
Procedure: as §1, §2

[3] = Enantioselective hydrolyzing activity of purified EHases toward SO; format: biochemical; settings: for enantiomer preference in hydrolysis of styrene oxide, in words: purified enzyme
Procedure: as §1, §2

[4] = Enantioselective hydrolyzing activity of purified EHases toward ECH; format: biochemical
Procedure: as §1, §2

[5] = Kinetic parameters of purified EHases by GC analysis, (S)-styrene oxide; format: biochemical; settings: (S)-enantiomer of styrene oxide, Table 5
Procedure: as §1, §2

[6] = Enantioselective hydrolyzing activity of purified EHases toward EX; format: biochemical
Procedure: as §1, §2

[7] = Effects of pH and temperature on the EHase activity of rEEH1, rEEH2 and rEEH3; format: biochemical
Procedure: The effect of pH on the EHase activity was measured with 50 mM sodium acetate-acetic acid buffer (pH 4.0 and 6.0), 50 mM MES buffer (pH 6.0 to 7.0), 50 mM Phosphate buffer (pH 7.0 to 9.0), and 50 mM Glycine buffer (pH 9.0 and 10.0), and the optimum reaction temperature on the EHase activity was measured over a temperature of range from 10 to 70° C. at pH 7.5.

[8] = substrate: c1ccc([C@@H]2CO2)cc1; assay: Kinetic parameters of purified rEEH2 by GC analysis with (R)- or (S)-styrene oxide; format: biochemical, Erythrobacter litoralis HTCC2594; settings: other: 100 mM potassium phosphate pH 8.0, 30° C.
Procedure: as §1, §2

[9] = substrate: c1ccc([C@H]2CO2)cc1; assay: as above; format: biochemical, Erythrobacter litoralis HTCC2594; settings: other: 100 mM potassium phosphate pH 8.0, 30° C.
Procedure: as §1, §2

[10] = Enantioselective hydrolyzing activity of purified EHases toward GPE; format: biochemical
Procedure: as §1, §2

[11] = substrate: c1ccc([C@@H]2CO2)cc1; assay: Kinetic parameters of purified nEEH by GC analysis with (R)- or (S)-styrene oxide; format: biochemical, Novosphingobium aromaticivorans; settings: other: 100 mM potassium phosphate pH 8.0, 30° C.
Procedure: as §1, §2

[12] = substrate: c1ccc([C@H]2CO2)cc1; assay: as above; format: biochemical, Novosphingobium aromaticivorans; settings: other: 100 mM potassium phosphate pH 8.0, 30° C.
Procedure: as §1, §2

[13] = Optimum activity conditions of sEEH, nEEH and rEEH; format: biochemical
Procedure: After cloning the genes into pET-24a (+) expression vector, the vector was introduced into BL21-CondonPlus(DE3)-RP (Novagen), and then separated by SDS-PAGE. […] Also, the optimum activities of sEEH, nEEH, and rEEH occurred at neutral pH and mesophilic conditions (30 to 40° C.).

[14] = substrate: c1ccc([C@@H]2CO2)cc1; assay: Kinetic parameters of purified sEEH by GC analysis with (R)- or (S)-styrene oxide; format: biochemical, Sphingopyxis alaskensis; settings: other: 100 mM potassium phosphate pH 8.0, 30° C.
Procedure: as §1, §2

[15] = substrate: c1ccc([C@H]2CO2)cc1; assay: as above; format: biochemical, Sphingopyxis alaskensis; settings: other: 100 mM potassium phosphate pH 8.0, 30° C.
Procedure: as §1, §2

B1: Erythrobacter litoralis HTCC2594 epoxide hydrolase rEEH2 (EEH2), SEQ ID NO: 15 (Erythrobacter litoralis HTCC2594) (protein)
chain: MAGPSLGEWKAKAQHFAYDGLQIAFWTGGKPDARPLLLVHGYPTASWDWHRVWETLGSKYHLVAPDMIGFGLSDKPRSGYSIHRQADMHVALLDHLGIGAFDALVHDYGVSVGQELLARRAERSAAQGLGQTVFLNGGIFPDQHRPRPIQKLGTSPLGFLVGLLTNREKFGRSFSEVFGPDTQPGAQELDEFWDLVSHNGGNRIMHKLLHYIADRKEHAERWFDALRIAQGDIGLINGALDPVSGRHAYEAWRERLPDARHHLIPTVGHYPQVEDPQTVSRVTLDWLAR
notes: soluble-EH-like alpha/beta hydrolase
[1]; (R)-enantiomer
  Hydrolysis rate EB (R): 0.08 (×10^−2) mg/min
[1]; (S)-enantiomer
  Hydrolysis rate EB (S): 0.08 (×10^−2) mg/min
[2]
  kcat Km: 0.3 s⁻¹ mM⁻¹
[3]; (R)-enantiomer
  Hydrolysis rate SO (R): 0.05 (×10^−2) mg/min
[3]; (S)-enantiomer
  Hydrolysis rate SO (S): 0.06 (×10^−2) mg/min
[3]
  enantiomer preference in hydrolysis of styrene oxide, in words: both of (S)-styrene oxide and (R)-styrene oxide were hydrolyzed at an equal rate
[4]; (R)-enantiomer
  Hydrolysis rate ECH (R): 0.23 (×10^−2) mg/min
[4]; (S)-enantiomer
  Hydrolysis rate ECH (S): 0.23 (×10^−2) mg/min
[5]
  kcat Km: 0.2 s⁻¹ mM⁻¹
[6]; (R)-enantiomer
  Hydrolysis rate EX (R): 0.07 (×10^−2) mg/min
[6]; (S)-enantiomer
  Hydrolysis rate EX (S): 0.07 (×10^−2) mg/min
[7]; 10 to 70° C. at pH 7.5
  optimum temperature (maximum hydrolysis rate): 55 °C
[7]; activity toward styrene oxide, pH 4.0 to 10.0
  optimum pH: 7.5
[8]
  Km: 5.49 mM and 5.4 mM
  Vmax: 0.11 µmol/min and 0.1 µmol/min
  kcat: 1.6 s⁻¹
[9]
  Km: 6.18 mM and 6.1 mM
  Vmax: 0.12 µmol/min and 0.1 µmol/min
  kcat: 1.7 s⁻¹
[10]; (R)-enantiomer
  Hydrolysis rate GPE (R): 0.06 (×10^−2) mg/min
[10]; (S)-enantiomer
  Hydrolysis rate GPE (S): 0.07 (×10^−2) mg/min

B2: Novosphingobium aromaticivorans epoxide hydrolase nEEH (Novo), SEQ ID NO: 30 (Novosphingobium aromaticivorans DSM 12444) (protein)
chain: MNVAPFVVDIPRGEIEDLHRRIDMTRWPEKETVDDWSQGTPLGALQDFVSYWRGGYDWYACQRMLNDWGMFETEIDGVAIRFLHVRSAQADARPLLLTHGWPGSILEFRRCIAPLTRPEEHGGTAADAFHLVIPCLPGYGFSGKPTRKGWSVQKIAQAWGELMKRLGYESWLAQGGDWGSAVTTAIGALKVEGCAGIHLNMPIARPLPEDLAAPTPEELRALTALQHYQDWDSGYSKEQATRPQTVGYGLVDSPVGLAGWIYEKMWAWTDNEGAPEDALSRDDMLDNIMLYWLTAAGASSARLYWESFASFGPSQIDIPAAASAFPKEIIPAPRKWFERNCSKLVYWGELEKGGHFAAWEQPEAFVKELRAAFSLMC
[11]
  Km: 6 ± 0.3 mM
  Vmax: 40 µmol/min/mg
  kcat: 27.8 s⁻¹
  kcat/Km: 4630 M⁻¹ s⁻¹
[12]
  Km: 4 ± 0.3 mM
  Vmax: 18.7 µmol/min/mg
  kcat: 13 s⁻¹
  kcat/Km: 3240 M⁻¹ s⁻¹
[3]
  enantiomer preference in hydrolysis of styrene oxide, in words: not enantioselective
[13]
  optimum pH: neutral pH

B3: Sphingopyxis alaskensis epoxide hydrolase sEEH (Sp), SEQ ID NO: 28 (Sphingopyxis alaskensis RB2256) (protein)
chain: SSAGPSTAITVSAAAAVAAPQDESIRPFHVSIPEEALTDLRRRLAETRWPDREKVSDASQGVQLDRLEPLVRYWGTDYDWRKGEARLNAVPQFITTIDGLDIQFIHIRSKHKGAMPLLMTHGWPGSPFELLKTVGPLTDPTAHGGKAEDAFDLIMPTYPGYGFSGKPNEAWDPARVARAWDVLMKRLGYKNYVSQGGDWGAIISQVLAVQAPEGLLGIHTNMPGTVPPGVLKLVRAKQPAPDSYSPEEKIAYAGLETFYGKGFGYAEMMNTRPQTLGYGLSDSPVGLAAFLYEKIATWTDSGGNPESVLTRDEILDNITLYWLTNTGTSSSRSYWDAAQGPGGPFNAIEISKVPVAVTVFPGEIYRAPRSWGEKSFKKLIYWNEVDKGGHFAAWEQPELFAAEIRAAFRPLREKK
[14]
  Km: 4 ± 0.3 mM
  Vmax: 8.9 µmol/min/mg
  kcat: 7.42 s⁻¹
  kcat/Km: 1860 M⁻¹ s⁻¹
[15]
  Km: 5.25 ± 0.3 mM
  Vmax: 12.1 µmol/min/mg
  kcat: 10.1 s⁻¹
  kcat/Km: 1920 M⁻¹ s⁻¹
